# Experiments:
# Fyn = Fyn (UniProt P06241); assay: phosphorylation enrichment, bacterial display (enrichment ratio); higher = better substrate or ligand; peptides without Tyr show the background
# Hck = Hck (UniProt P08631); assay: as above
# MERTK = MERTK (UniProt Q12866); assay: as above
# Fes = Fes (UniProt P07332); assay: as above
# c-Abl (mouse) = assay: as above
# Fer (mouse) = assay: as above
# EPHB2 = EPHB2 (UniProt P29323); assay: as above
# Jak2 = Jak2 (UniProt O60674); assay: as above
# AncSZ = assay: as above
# EPHB1 = EPHB1 (UniProt P54762); assay: as above
# EPHB1, sequence (P54762 whole entry, looked up): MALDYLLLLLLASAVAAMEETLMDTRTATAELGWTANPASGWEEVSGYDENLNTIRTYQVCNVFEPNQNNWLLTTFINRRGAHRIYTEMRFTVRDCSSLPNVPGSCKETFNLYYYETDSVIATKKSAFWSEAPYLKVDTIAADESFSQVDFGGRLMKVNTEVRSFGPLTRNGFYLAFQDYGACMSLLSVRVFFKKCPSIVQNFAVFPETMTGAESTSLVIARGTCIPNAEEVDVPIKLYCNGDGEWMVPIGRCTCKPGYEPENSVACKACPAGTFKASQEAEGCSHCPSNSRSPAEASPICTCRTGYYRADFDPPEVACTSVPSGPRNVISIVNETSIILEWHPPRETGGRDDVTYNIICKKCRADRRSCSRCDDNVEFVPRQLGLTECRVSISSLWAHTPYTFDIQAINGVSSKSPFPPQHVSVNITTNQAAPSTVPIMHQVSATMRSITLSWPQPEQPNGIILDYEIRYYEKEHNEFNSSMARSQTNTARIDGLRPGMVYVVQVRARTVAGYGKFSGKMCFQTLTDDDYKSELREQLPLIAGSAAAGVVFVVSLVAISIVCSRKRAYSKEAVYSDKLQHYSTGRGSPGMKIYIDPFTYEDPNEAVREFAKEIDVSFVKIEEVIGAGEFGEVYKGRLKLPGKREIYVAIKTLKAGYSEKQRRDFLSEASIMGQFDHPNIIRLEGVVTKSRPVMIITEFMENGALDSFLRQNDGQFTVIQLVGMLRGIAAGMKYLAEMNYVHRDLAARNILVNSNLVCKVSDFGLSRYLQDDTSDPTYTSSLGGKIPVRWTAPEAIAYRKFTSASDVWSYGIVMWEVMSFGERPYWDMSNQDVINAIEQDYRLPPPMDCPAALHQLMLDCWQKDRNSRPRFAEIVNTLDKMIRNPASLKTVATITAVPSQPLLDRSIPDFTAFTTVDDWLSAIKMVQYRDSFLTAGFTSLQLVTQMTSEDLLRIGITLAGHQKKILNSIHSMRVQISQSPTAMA
# FGFR1 = FGFR1 (UniProt P11362); assay: as above
# FGFR1, sequence (P11362 whole entry, looked up): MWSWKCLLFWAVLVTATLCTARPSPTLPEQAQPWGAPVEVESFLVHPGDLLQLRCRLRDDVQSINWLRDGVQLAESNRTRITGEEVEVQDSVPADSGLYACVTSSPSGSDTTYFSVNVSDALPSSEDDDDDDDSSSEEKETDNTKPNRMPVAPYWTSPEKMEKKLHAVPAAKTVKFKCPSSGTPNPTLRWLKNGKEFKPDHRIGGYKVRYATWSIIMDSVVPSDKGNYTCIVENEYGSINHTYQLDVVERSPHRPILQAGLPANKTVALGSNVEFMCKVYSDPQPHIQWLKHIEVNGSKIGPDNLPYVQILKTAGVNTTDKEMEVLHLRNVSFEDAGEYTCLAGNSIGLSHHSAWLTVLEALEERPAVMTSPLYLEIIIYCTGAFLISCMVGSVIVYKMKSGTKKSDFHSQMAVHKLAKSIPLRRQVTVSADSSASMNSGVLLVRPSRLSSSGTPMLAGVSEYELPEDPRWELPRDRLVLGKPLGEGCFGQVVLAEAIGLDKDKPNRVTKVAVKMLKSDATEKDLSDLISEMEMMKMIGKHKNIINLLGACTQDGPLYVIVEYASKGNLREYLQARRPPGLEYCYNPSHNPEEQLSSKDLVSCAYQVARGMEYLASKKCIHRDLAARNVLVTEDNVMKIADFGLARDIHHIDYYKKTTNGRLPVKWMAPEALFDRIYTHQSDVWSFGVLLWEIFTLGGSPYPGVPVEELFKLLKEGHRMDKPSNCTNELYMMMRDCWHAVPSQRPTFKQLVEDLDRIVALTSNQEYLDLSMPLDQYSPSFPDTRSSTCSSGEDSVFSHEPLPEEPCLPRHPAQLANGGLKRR
# FGFR3 = FGFR3 (UniProt P22607); assay: as above
# FGFR3, sequence (P22607 whole entry, looked up): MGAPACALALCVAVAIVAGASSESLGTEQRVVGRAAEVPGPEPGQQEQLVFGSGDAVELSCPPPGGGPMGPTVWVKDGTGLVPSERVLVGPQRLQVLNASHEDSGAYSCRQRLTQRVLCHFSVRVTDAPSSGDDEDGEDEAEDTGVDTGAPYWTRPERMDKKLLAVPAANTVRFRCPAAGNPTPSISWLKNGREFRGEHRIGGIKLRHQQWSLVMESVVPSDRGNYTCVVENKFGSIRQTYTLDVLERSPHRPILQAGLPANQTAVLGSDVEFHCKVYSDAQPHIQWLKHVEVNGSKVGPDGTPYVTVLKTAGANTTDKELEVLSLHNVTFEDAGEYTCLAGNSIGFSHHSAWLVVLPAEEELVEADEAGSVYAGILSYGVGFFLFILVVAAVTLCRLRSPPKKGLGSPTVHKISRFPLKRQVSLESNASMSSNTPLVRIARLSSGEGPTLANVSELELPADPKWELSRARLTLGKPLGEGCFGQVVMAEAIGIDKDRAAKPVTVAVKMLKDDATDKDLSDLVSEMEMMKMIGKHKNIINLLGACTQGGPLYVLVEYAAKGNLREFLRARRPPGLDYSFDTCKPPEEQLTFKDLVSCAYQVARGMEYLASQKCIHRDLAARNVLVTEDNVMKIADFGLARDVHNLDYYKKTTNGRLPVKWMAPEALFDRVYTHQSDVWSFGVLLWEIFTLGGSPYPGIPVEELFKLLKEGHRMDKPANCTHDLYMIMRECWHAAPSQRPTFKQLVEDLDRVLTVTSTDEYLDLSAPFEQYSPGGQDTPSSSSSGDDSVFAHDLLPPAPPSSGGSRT
# c-Src = assay: as above
# Grb2 SH2 = Grb2 SH2 (UniProt P62993); assay: SH2 binding enrichment of the phosphorylated peptide, bacterial display (enrichment ratio); higher = better substrate or ligand; peptides without Tyr show the background
# SHP2-C SH2 = assay: as above
# c-Src SH2 = assay: as above
# 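Wherever SH2 binding enrichment of the phosphorylated peptide, bacterial display is given: peptide library displayed on the E. coli surface as eCPX fusions, selected cells deep-sequenced, score is each peptide's frequency after selection divided by its frequency in the input.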
# 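Wherever phosphorylation enrichment, bacterial display is given: 11-residue human phosphosite peptides and single-mutation variants displayed on the E. coli surface, counted by deep sequencing, each peptide's frequency after selection divided by its frequency in the unselected input library; frequency after pTyr selection over input frequency; kinase dosed for 20-30% of maximal phosphorylation in three min.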
# Fes, sequence (P07332 whole entry, looked up): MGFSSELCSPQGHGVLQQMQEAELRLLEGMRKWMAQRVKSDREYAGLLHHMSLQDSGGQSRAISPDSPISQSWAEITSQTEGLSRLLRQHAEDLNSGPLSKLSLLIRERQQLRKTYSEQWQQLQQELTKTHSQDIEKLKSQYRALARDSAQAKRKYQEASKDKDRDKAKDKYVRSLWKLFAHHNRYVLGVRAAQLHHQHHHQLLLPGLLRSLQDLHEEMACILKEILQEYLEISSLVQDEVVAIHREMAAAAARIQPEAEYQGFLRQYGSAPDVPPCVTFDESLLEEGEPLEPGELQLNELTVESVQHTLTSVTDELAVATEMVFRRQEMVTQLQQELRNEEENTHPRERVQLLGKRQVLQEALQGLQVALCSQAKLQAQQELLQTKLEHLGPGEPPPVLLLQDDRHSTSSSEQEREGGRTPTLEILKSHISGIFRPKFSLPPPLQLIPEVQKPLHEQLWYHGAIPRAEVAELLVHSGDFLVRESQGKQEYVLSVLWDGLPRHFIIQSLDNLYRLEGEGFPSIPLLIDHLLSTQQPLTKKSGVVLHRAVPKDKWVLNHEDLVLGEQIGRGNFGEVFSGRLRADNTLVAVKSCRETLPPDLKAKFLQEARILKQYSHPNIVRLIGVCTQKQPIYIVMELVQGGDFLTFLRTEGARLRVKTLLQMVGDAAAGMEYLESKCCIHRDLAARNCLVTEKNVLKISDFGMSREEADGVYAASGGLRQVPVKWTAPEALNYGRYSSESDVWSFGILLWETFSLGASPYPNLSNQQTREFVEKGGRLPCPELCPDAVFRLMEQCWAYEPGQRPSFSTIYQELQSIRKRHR
# EPHB2, sequence (P29323 whole entry, looked up): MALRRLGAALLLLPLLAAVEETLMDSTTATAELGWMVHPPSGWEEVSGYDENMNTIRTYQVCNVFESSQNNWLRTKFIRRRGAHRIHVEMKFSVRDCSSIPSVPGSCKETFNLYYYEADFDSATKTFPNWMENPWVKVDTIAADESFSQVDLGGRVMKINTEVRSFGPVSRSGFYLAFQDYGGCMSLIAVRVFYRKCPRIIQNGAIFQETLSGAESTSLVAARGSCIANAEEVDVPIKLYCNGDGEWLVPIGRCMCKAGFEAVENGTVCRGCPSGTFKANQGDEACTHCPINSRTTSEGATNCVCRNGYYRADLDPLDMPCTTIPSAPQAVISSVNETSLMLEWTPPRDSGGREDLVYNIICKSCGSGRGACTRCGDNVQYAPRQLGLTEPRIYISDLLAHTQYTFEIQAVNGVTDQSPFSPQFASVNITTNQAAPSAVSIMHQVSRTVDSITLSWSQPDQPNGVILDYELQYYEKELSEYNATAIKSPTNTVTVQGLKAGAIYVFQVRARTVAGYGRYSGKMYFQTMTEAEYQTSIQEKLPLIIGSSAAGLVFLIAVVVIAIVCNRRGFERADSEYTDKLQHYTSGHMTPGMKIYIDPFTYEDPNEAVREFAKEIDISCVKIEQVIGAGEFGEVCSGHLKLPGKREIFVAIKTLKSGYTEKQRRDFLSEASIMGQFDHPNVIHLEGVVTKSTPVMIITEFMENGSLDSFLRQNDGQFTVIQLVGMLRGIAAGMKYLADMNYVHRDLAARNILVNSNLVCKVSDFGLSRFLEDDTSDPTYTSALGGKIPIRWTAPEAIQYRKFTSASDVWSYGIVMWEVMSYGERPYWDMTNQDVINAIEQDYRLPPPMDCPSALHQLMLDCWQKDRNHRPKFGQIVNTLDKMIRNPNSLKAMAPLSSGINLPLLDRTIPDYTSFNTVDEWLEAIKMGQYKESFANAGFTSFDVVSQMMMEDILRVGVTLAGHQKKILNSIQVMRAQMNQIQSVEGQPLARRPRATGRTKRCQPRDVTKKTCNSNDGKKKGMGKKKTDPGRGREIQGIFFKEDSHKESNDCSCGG
# Hck, sequence (P08631 whole entry, looked up): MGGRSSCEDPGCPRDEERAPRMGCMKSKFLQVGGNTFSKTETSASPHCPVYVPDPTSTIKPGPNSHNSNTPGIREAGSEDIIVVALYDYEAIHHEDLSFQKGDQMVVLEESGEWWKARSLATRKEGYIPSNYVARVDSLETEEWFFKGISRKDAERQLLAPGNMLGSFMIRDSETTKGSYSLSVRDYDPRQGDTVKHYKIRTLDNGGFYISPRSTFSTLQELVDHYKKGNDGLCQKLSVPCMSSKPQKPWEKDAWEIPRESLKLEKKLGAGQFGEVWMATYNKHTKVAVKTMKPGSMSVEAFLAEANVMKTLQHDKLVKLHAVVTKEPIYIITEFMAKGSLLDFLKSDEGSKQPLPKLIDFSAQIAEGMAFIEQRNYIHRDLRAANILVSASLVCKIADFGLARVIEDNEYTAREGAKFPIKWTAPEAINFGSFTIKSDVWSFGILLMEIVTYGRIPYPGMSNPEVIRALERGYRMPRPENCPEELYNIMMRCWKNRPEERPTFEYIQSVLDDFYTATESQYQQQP
SH2 binding enrichment (Grb2 SH2),SH2 binding enrichment (SHP2-C SH2),SH2 binding enrichment (c-Src SH2),Sequence,phosphorylation enrichment (Fyn),phosphorylation enrichment (Hck),phosphorylation enrichment (MERTK),phosphorylation enrichment (Fes),phosphorylation enrichment (c-Abl (mouse)),phosphorylation enrichment (Fer (mouse)),phosphorylation enrichment (EPHB2),phosphorylation enrichment (Jak2),phosphorylation enrichment (AncSZ),phosphorylation enrichment (EPHB1),phosphorylation enrichment (FGFR1),phosphorylation enrichment (FGFR3),phosphorylation enrichment (c-Src)
0.707,0.882,0.655,QAINEYEKWLE [MAP9_Y603],1,1.2,0.663,1.81,1.06,0.961,1.03,1.73,2.34,1.67,1.12,1.39,0.631
0.93,0.564,1.06,QDDYSYPSRQM [LDLR_Y847_G844D],1.46,1.02,1.13,2.17,4.49,1.66,7.79,1.74,13.3,3.54,2.04,1.66,1.02
0.584,0.685,0.41,QEALEYFMKQT [PIK3CA_Y1038_M1043T],1.93,1.05,0.813,3.76,1.85,1.82,1.64,3.01,3.3,1.31,1.67,2.76,1.6
0.871,0.642,0.458,QFNPEYVQQAS [LRRC7_Y1058_H1054Y_YF],0.687,0.792,0.638,1.46,0.904,0.648,0.778,1.3,1.79,1.02,0.741,0.761,0.518
0.963,0.58,0.747,QITQVCGFYDE [PPP2CA_Y127_Y127C],0.636,0.865,0.522,1.57,1.08,0.856,0.849,1.19,1.21,1.1,0.648,0.995,0.823
0.746,0.802,0.642,QKLPLYILENN [VPS13B_Y2774_S2773L],0.556,0.709,0.758,1.28,1,0.551,0.607,1.06,0.967,0.942,0.81,0.761,0.964
1,0.755,7.13,QNTGGYYDLYG [PTPN11_Y62_D61G],8.15,8.85,8.88,1.64,1.01,2.69,2.78,6.15,1.32,1.85,13.8,10,5.87
0.851,0.632,0.62,QQLVAYYSKHA [SRC_Y232],0.723,0.781,0.944,1.15,0.934,0.559,0.916,1.3,1.75,0.765,0.71,1.14,1.02
0.865,1.48,0.823,QQLVAYYSKHT [SRC_Y232_A237T],0.889,0.653,0.629,0.951,0.906,0.42,0.92,0.932,1.13,1.42,0.818,0.926,0.591
0.972,1.03,1.05,QRPGPYDRPGA [HNRNPH2_Y210],0.322,0.705,0.426,0.812,0.496,0.281,0.466,0.439,0.556,0.453,0.43,0.48,0.386
1.17,1.14,0.734,QRPYVYYYSYL [PTEN_Y176_R173P],3.38,3.7,8.05,2.35,1.59,2,4.08,6.45,2.26,4.84,9.79,7.23,5.34
0.84,0.783,0.469,QTEAPYRFIYM [PTPN11_Y511_Q510P],0.697,0.984,1.4,1.6,1.15,11,1.25,1.22,1.41,0.93,7.24,5.25,1.93
0.567,0.406,0.314,RDWSLYFKIIE [KRT18_Y129_H128L],0.447,0.356,0.327,1.56,0.4,0.464,0.576,1.09,1.66,0.799,0.395,0.841,0.354
0.796,0.615,0.338,RGFRVCFTPDS [PTPRF_Y450_Y450C_YF],0.521,1.65,0.551,1.73,1.32,0.635,0.462,1.97,1.09,0.64,0.337,0.812,0.549
1.16,0.908,1.2,RGFRVYFTPDS [PTPRF_Y450_YF],0.4,0.542,0.538,1.71,1.2,0.469,0.749,1.76,1.31,0.583,0.545,0.877,0.714
0.681,0.469,0.59,RGKDNYETSQL [SPP1_Y225_S224N],0.549,0.56,0.689,0.773,0.62,0.541,0.628,0.74,0.857,0.662,0.565,0.634,0.681
1.09,0.629,0.479,RHNEIYEIKVD [LGR5_Y387],8.54,6.57,0.616,1.18,0.768,0.915,0.671,1.86,1.12,0.312,0.724,1.02,8.99
1.96,1.53,1.11,RIILLYIFLKN [STXBP1_Y411],0.212,0.42,0.581,1.01,0.827,0.45,0.332,0.994,0.83,0.298,0.466,0.489,0.62

# More lines, now with the values behind:
Sequence,SH2 binding enrichment (Grb2 SH2),SH2 binding enrichment (SHP2-C SH2),SH2 binding enrichment (c-Src SH2),phosphorylation enrichment (Fyn),phosphorylation enrichment (Hck),phosphorylation enrichment (MERTK),phosphorylation enrichment (Fes),phosphorylation enrichment (c-Abl (mouse)),phosphorylation enrichment (Fer (mouse)),phosphorylation enrichment (EPHB2),phosphorylation enrichment (Jak2),phosphorylation enrichment (AncSZ),phosphorylation enrichment (EPHB1),phosphorylation enrichment (FGFR1),phosphorylation enrichment (FGFR3),phosphorylation enrichment (c-Src)
QDDTVYMGKVI [DCTN1_Y1244_T1249I],1.05,0.427,0.389,1.45,1.33,0.765,1.72,2.06,0.943,0.841,1.57,1.72,0.873,0.913,0.938,0.942
QGIPWYHSQSP [FOXF1_Y331_R330W],1.43,1.14,1.15,0.46,0.547,0.517,0.642,0.633,0.533,0.503,0.977,0.645,0.435,0.571,0.441,0.601
QLRPGYIPIPV [BAG3_Y93],0.848,0.585,0.493,0.736,0.639,0.772,0.915,0.796,0.645,0.592,1.08,0.953,0.774,0.735,1.09,0.734
QMQAAYQKVVA [HBD_Y131],1.03,0.418,0.937,0.47,0.47,0.412,0.578,0.422,0.519,0.441,0.497,0.504,0.373,0.419,0.72,0.293
QMVGMYAFSYM [AVPR2_Y124_S126F],0.638,0.651,0.562,1.55,1.52,6.65,1.86,1.27,4.47,1.84,1.44,2.25,2.45,0.804,1.15,1.35
QNRELYSEGLG [CNKSR1_Y665],0.74,0.616,0.536,0.434,0.895,0.443,0.789,1.33,0.309,0.454,0.497,0.516,0.536,0.578,0.397,0.446
QPEDIYHQTWA [GBA_Y244_G241E],1.09,0.93,0.61,7.34,4.47,3.42,1.09,9.69,3.02,0.673,0.955,2,0.843,6.95,4.93,5.92
QQLQGYIPSNF [FRK_Y99_YF],0.674,0.519,0.47,0.938,0.647,0.878,1.29,0.899,0.679,0.881,0.981,1.11,0.763,0.884,1.09,0.546
QTLTDYDTRFF [CSNK2A3_Y131_I133T_YF],0.862,0.852,0.708,0.702,1.06,0.473,1.09,0.725,0.684,0.823,0.832,0.909,0.506,0.666,0.912,0.573
RASSVFTRSTG [CCR5_Y339_Y339F],0.644,0.778,0.455,0.868,0.579,0.624,0.732,0.861,0.736,0.468,0.766,0.73,0.619,0.589,0.797,0.821
RFMVGYEMLAQ [GALT_Y339_K334R],0.836,0.617,2.32,0.719,0.751,0.635,1.41,0.849,0.677,0.811,1.4,1.38,0.939,0.875,0.873,0.83
RGRSTCFWPRP [GAGE12J_Y9_Y9C_YF],0.595,0.353,0.571,0.693,0.635,0.796,0.772,1.04,0.786,0.733,1.19,0.71,0.782,1.05,0.928,0.867
RGRSTYFWPRP [GAGE12J_Y9_YF],0.456,0.704,0.489,0.641,0.636,1.3,1.02,1.17,1.11,0.652,0.838,1.15,0.875,0.93,1.06,0.999
RHLLRYLSWTV [CLCNKB_Y93_S88R],1.55,1.05,1.02,0.507,0.614,0.379,1.29,0.969,0.594,0.591,0.982,0.883,0.712,0.532,0.521,0.516
RIGRKCKKVRF [F8_Y442_Y442C],0.638,0.428,0.433,0.55,0.52,0.549,0.595,0.524,0.363,0.556,0.654,0.608,0.567,1.67,0.572,0.794
